According to publication PMC4122979, “The N-terminal portion of autoinhibitory element modulates human endothelial nitric-oxide synthase activity through coordinated controls of phosphorylation at Thr^495 and Ser^1177” (Bioscience Reports, 2014):

Molecular target: CaM (calmodulin) (UniProt P0DP23)
Assay: CaM mobility shift on non-denaturing PAGE
Conditions: reference: unmodified T495 peptide; sites T495

- binding against the reference: weaker
Substance: eNOS (endothelial nitric-oxide synthase; heNOS) CaM-binding domain (CBD), 491-510 (from UniProt P29474) pT495 peptide
